Patent publication US6355619B1, “Peptide tumor cell growth inhibitors” (Board of Regents, The University of Texas System, priority 1996, dated 2002)
“And” between values parts separate entries of the source, which are not always exact repeats. Equal values may be shown once. Read-outs that look alike come from different tables or passages of the source. Values belong to the substance of their own block, whether it stands above or below them.

Key:
[1] = target: MGSA/GROα receptors on Hs 294T melanoma cells; experiment: cell-based or functional assay
[2] = target: MGSA/GROα receptors on Hs 294T melanoma cells; experiment: 1 nM 125I-MGSA/GROα displaced by unlabeled MGSA/GROα on Hs 294T cells, Lundon II
[3] = target: MGSA/GROα receptors on RPMI-7951 melanoma cells; experiment: 1 nM 125I-MGSA/GROα displaced by unlabeled MGSA/GROα on RPMI-7951 cells, Lundon II
[4] = target: IL-8 receptors on human neutrophils (human); experiment: inhibition of 125I-IL-8 binding to human neutrophils; peptide concentration not given
[5] = target: IL-8 receptors on human neutrophils (human); experiment: cell-based or functional assay
[6] = target: MGSA/GROα receptors on RPMI-7951 melanoma cells; experiment: cell-based or functional assay
[7] = target: IL-8 receptors on human neutrophils (human); experiment: inhibition of 1 nM 125I-IL-8 binding to human neutrophils, 90 min 4 °C, average of replicates
[8] = target: MGSA/GROα receptors on Hs 294T melanoma cells; experiment: inhibition of 1 nM 125I-MGSA/GROα binding to Hs 294T cells
[9] = target: IL-8 receptors on human neutrophils (human); experiment: inhibition of 125I-IL-8 binding to human neutrophils, peptide 10 µM
[10] = target: IL-8 receptors on human neutrophils (human); experiment: inhibition of 125I-IL-8 binding to human neutrophils, assuming purely competitive single site model
[11] = target: IL-8 receptors on human neutrophils (human); experiment: inhibition of IL-8 binding to human neutrophils
[12] = target: MGSA/GROα receptors on RPMI-7951 melanoma cells; experiment: inhibition of 1 nM 125I-MGSA/GROα binding to RPMI-7951 cells
[13] = target: IL-8 receptors on human neutrophils (human); experiment: inhibition of binding of 1 nM IL-8 to human neutrophils, 90 min on ice (FIG. 10)
[14] = target: IL-8 receptors on human neutrophils (human); experiment: inhibition of 125I-IL-8 binding to human neutrophils, method of Example I; reference row of the heptamer table
[15] = target: IL-8 receptors on human neutrophils (human); experiment: inhibition of 125I-IL-8 (10^-12 M) binding to human neutrophils, peptide 100 µM
[16] = target: IL-8 receptors on human neutrophils (human); experiment: saturation binding of 125I-IL-8 to human neutrophils, Lundon I, one-site model, no peptide
[17] = target: Receptor 2 (Table 2; class of IL-8 receptors on human neutrophils, two-site model, Lundon I) (human); experiment: saturation binding of 125I-IL-8 to human neutrophils, Lundon I, two-site model, in presence of 10 µM Ac-RRWWCR-NH2
[18] = target: Receptor 1 (Table 2; class of IL-8 receptors on human neutrophils, two-site model, Lundon I) (human); experiment: as above
[19] = target: Receptor 2 (Table 2; class of IL-8 receptors on human neutrophils, two-site model, Lundon I) (human); experiment: saturation binding of 125I-IL-8 to human neutrophils, Lundon I, two-site model, in presence of 40 µM Ac-RRWWCR-NH2
[20] = target: Receptor 1 (Table 2; class of IL-8 receptors on human neutrophils, two-site model, Lundon I) (human); experiment: as above
[21] = target: Receptor 2 (Table 3; class of IL-8 receptors on human neutrophils, two-site model, Lundon II) (human); experiment: displacement of 1 nM 125I-IL-8 by unlabeled IL-8 on human neutrophils, Lundon II two-site model, IL-8 alone
[22] = target: Receptor 1 (Table 3; class of IL-8 receptors on human neutrophils, two-site model, Lundon II) (human); experiment: as above
[23] = target: Receptor 2 (Table 2; class of IL-8 receptors on human neutrophils, two-site model, Lundon I) (human); experiment: saturation binding of 125I-IL-8 to human neutrophils, Lundon I, two-site model, in presence of 20 µM Ac-RRWWCR-NH2
[24] = target: Receptor 1 (Table 2; class of IL-8 receptors on human neutrophils, two-site model, Lundon I) (human); experiment: as above
[25] = target: Receptor 2 (Table 3; class of IL-8 receptors on human neutrophils, two-site model, Lundon II) (human); experiment: displacement of 1 nM 125I-IL-8 by unlabeled IL-8 on human neutrophils, Lundon II two-site model, +10 µM Ac-RRWWCR
[26] = target: Receptor 1 (Table 3; class of IL-8 receptors on human neutrophils, two-site model, Lundon II) (human); experiment: as above
[27] = test system: RPMI-7951 melanoma cells; experiment: Binding of 125I-IL-8 to RPMI-7951 melanoma cells
Experimental: (§1) FIG. 12. The specificity of the receptor binding. The melanoma cells, Hs 294T (closed symbols) and RPMI-7951 (open symbols), were incubated with indicated concentrations of radiolabeled MGSA/GROα (circles) or IL-8 (triangles). The non-specific binding was estimated by the binding in the presence of 100 fold excess of unlabeled material. Specific binding which is calculated by subtracting non-specific binding from total binding is shown in this figure.
(§2) Binding studies with melanoma cell lines were performed by the method of Horuk and colleagues (Horuk et al., 1993). Briefly, the cells (1×10^5 cells/well) in 24-well plates were washed two times with Hank's Balanced Salt Solution and incubated with ^125I-labeled MGSA/GROα or IL-8 in the buffer containing 1% bovine serum albumin at 4° C. for 3 hr. The incubation was terminated by vacuum aspiration of the supernatant. The cells were washed three times in binding buffer, solubilized by the addition of 200 μl of 1% SDS, and transferred to vials for counting. The non-specific binding was estimated by measuring the binding in the presence of 100-fold excess of non-labeled ligand. The binding parameters were calculated using the Lundon II computer program (Lundon Software Inc., Chagrin Falls, Ohio).

[28] = test system: IL-8 receptors on neutrophils; experiment: Inhibition of 125I-labeled IL-8 binding to human neutrophils
Experimental: Therefore, in pursuing this aim, the present inventors assayed various other peptide compositions for IL-8 inhibitory activity by screening a library of 400 groups of hexapeptides. In these screening assays, ^125I-labeled interleukin-8 (10^−12 M) was mixed with 100 μM peptide, then added to neutrophils and incubated at 4° C. for 90 min. The bound radioactivity was separated from unbound by centrifugation through a dense cushion of a mixture of paraffin and silicon oils and the ^125I bound to neutrophils was counted in a gamma radiation spectrometer, allowing the results to be expressed as the percent of IL-8 binding which was inhibited.
The use of human subjects for acquisition of neutrophils was approved by the Institutional Review Board for human experimentation. For the preparation of neutrophils, human blood was anticoagulated with heparin for enzyme release studies and with 0.33% sodium citrate for other studies. For chemotactic and enzyme release studies neutrophils were separated by dextran sedimentation and erythrocyte lysis by the method of Boyum (Kohler and Milstein, 1975). For binding studies and cytotoxic studies, the neutrophils were further purified in gradients of Percoll (Pharmacia Fine Chemicals, Piscataway, N.J.) to a purity of 90-93% (Kohler and Milstein, 1975).
Recombinant human IL-8 (72 amino acids; Pepro Tech Inc., Rocky Hill, N.J.) was radioactively labeled with ^125I by the chloramine T method of Hunter and Greenwood (Hunter and Greenwood, 1962). Binding studies were performed according to Besemer et al. (1989), as follows: Neutrophils in phosphate buffered saline pH 7.4 (PBS) containing 0.1% bovine serum albumin (BSA) were incubated with labeled ligand in the presence or absence of the peptide being tested for 90 min at 4° C. to reach equilibrium and then centrifuged at 12,000×g for 3 min in Beckman B microfuge (Beckman Instruments, Fullerton, Calif.), through a cushion consisting of a mixture of paraffin oil Fisher Scientific, Fair Lawn, N.J.) and silicon oil (Serva Co., N.Y., N.Y.). The pellet and supernatant were then counted in a gamma radiation spectrometer. The non-specific binding was estimated to measure the binding in the presence of 100-fold excess of non-labeled ligand. The binding constants were calculated using the computer programs Lundon I and Lundon II.
In these studies, a screening for inhibition was carried out at 100 μM concentration of the peptide being tested, with a 10^−12 M concentration of IL-8. In the first series of studies, twenty peptides were synthesized with the carboxyl-terminal residue of RRWWCX (SEQ ID NO:23) being changed to each of the standard protein amino acids in turn.

[29] = test system: Hs 294T melanoma cells; experiment: Binding of 125I-IL-8 to Hs 294T melanoma cells; set-up: species or system human
Experimental: as §1, §2

[30] = test system: MGSA/GROα receptors on Hs 294T melanoma cells; experiment: Binding of 125I-MGSA/GROα to Hs 294T melanoma cells; set-up: species or system human
Experimental: (§3) FIG. 11A. The binding of ^125I-labeled MGSA/GROα to melanoma cell lines, Hs 294T and RPMI-7951. The melanoma cells, 1×10^5, were incubated with 1 nM ^125I-MGSA/GROα in the presence of various concentrations of unlabeled MGSA/GROα. Binding inhibition curve with Hs 294T (closed circles) and RPMI-7951 (open circles). The lines shown in the graph are the best fit curves calculated using the London II computer program.
(§4) FIG. 13. The effect of Antileukinate on the binding of radiolabeled MGSA/GROα to the melanoma cell lines. The melanoma cells, Hs 294T (closed circles) and RPMI-7951 (open circles), were incubated with 1 nM ^125I-MGSA/GROα in the presence of different concentrations of Antileukinate. The lines shown in the graph are the best fit curves calculated using the London II computer program.
(§5) Recombinant human MGSA/GROα and IL-8 were purchased form Pepro Tech Inc. (Rocky Hill, N.J.) and radioactively labeled using ^125I-labeled Bolton-Hunter reagent (DuPont-NEN, Wilmington, Del.) (Bolton and Hunter, 1973). The labeled proteins were isolated using Sephadex G-25 column (Column PD-10, Pharmacia) pre-equilibrated with PBS containing 0.1% gelatin and stored at −70° C. after the addition of 1% bovine serum albumin.
as §2

[31] = test system: MGSA/GROα receptors on RPMI-7951 melanoma cells; experiment: Binding of 125I-MGSA/GROα to RPMI-7951 melanoma cells; conditions: RPMI-7951
Experimental: as §3, §4, §5, §2

[32] = target: IL-8 receptors on human neutrophils (human); experiment: inhibition of 125I-IL-8 binding to human neutrophils
[33] = target: IL-8 receptors on human neutrophils (human); experiment: inhibition of 125I-IL-8 binding to human neutrophils, method of Example I; D-amino acid heptamer series
[34] = IL-8 alone, binding inhibition curves, Lundon II

Recombinant human IL-8 (72 amino acids), sequence (P10145 28-99 limits assumed): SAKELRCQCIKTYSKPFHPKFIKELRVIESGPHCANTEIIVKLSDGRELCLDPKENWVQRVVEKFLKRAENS
Recombinant human MGSA/GROα, sequence (P09341 35-107): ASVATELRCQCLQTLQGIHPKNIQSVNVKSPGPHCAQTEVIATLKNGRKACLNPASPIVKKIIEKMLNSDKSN

Substance: Recombinant human MGSA/GROα (from UniProt P09341 35-107) (ligand)
reversal of the inhibition of Hs 294T growth by 50 µM Antileukinate [1]: 50 nM
Kd [2]: 6 nM
maximal binding (Bmax) (fmole/10^5 cells) [2]: 11
Kd [3]: 3 nM
maximal binding (Bmax) (fmole/10^5 cells) [3]: 15

Substance: Ac-KELRCQ-NH2 (peptide)
% Binding Inhibition [4]: -0.4%

Substance: IL-8: Recombinant human IL-8 (72 amino acids; Pepro Tech Inc.), radiolabeled ligand [reference compound]
specific binding of IL-8 to melanoma cells [27]: no specific binding
Bmax of IL-8, one-site model ([28]; 0 μM peptide, binding isotherms, Lundon I): 174.2 ± 14.5 fmole/10^6 cells
Kd ([28]; 0 μM peptide, binding isotherms, Lundon I, read-out: Kd of IL-8, one-site model): 1.3 ± 0.2 nM
Receptor 1 Bmax of IL-8 [28, 34]: 38.8 ± 0.6 fmole/10^6 cells
Receptor 2 Bmax of IL-8 [28, 34]: 68.8 ± 0.7 fmole/10^6 cells
Kd ([28]; IL-8 alone, binding inhibition curves, Lundon II, read-out: Receptor 1 Kd of IL-8): 0.03 nM
Kd ([28]; IL-8 alone, binding inhibition curves, Lundon II, read-out: Receptor 2 Kd of IL-8): 0.67 ± 0.04 nM
specific binding of IL-8 to melanoma cells [29]: no specific binding

Substance: MGSA/GROα: Recombinant human MGSA/GROα (Pepro Tech Inc.), 73 amino acid α-chemokine
Kd [30]: ~6 nM
maximal binding (Bmax) of MGSA/GROα [30]: 11 fmole/10^5 cells
Kd [31]: ~3 nM
maximal binding (Bmax) of MGSA/GROα [31]: 15 fmole/10^5 cells

Substance: Ac-rrwwcrc-NH2 (peptide)
% of IL-8 binding prevented [9]: 80%
fold potency against Ac-rrwwcr-NH2 (SEQ ID NO:1) [32]: 4 fold
% INHIB. [33]: 108%

Second part, the substance after the results:

chemotaxis of neutrophils stimulated with 10 nM of IL-8 [5]: 50 µM
enzyme release from neutrophils stimulated by IL-8 [5]: 0.8 µM
β-glucuronidase release stimulated by 100 nM of IL-8 [5]: 2 µM
growth of Hs 294T cells (cell number after 72 hr) [1]: 18 µM and 10 µM
growth of melanoma cells in culture [1]: 100 µM
growth of RPMI-7951 melanoma cells (cell number after 72 hr) [6]: 31 µM
growth of melanoma cells in culture [6]: 100 µM
EC50 [7]: 13.7 µM
EC50 [8]: 1000 nM
% inhibition [9]: 20%
Ki [10]: 10 µM
fold effectiveness against the non-acetylated peptide [11]: 2 fold
% Binding Inhibition [4]: 98.6%
EC50 [12]: 1000 nM
EC50 [13]: 25 µM
% INHIB. [14]: 112%
% INHIB. [15]: 112%
Substance: Ac-RRWWCR-NH2 (peptide)

Bmax (fmole/10^6 cells) [16]: 174
Kd [16]: 1.3 nM
Bmax (fmole/10^6 cells) [17]: 90.9
Bmax (fmole/10^6 cells) [18]: 91.9
Kd [18]: 68 nM
Bmax (fmole/10^6 cells) [19]: 44.2
Kd [19]: 1.3 nM
Bmax (fmole/10^6 cells) [20]: 82
Kd [20]: 13 nM
Bmax (fmole/10^6 cells) [21]: 68.8
Kd [21]: 0.67 nM
Bmax (fmole/10^6 cells) [22]: 38.8
Kd [22]: 0.03 nM
Bmax (fmole/10^6 cells) [23]: 76.2
Kd [23]: 0.8 nM
Bmax (fmole/10^6 cells) [24]: 90.9
Kd [24]: 42.8 nM
Bmax (fmole/10^6 cells) [25]: 75.6
Kd [25]: 0.76 nM
Bmax (fmole/10^6 cells) [26]: 11.2
Kd [26]: 1.23 nM
Substance: Recombinant human IL-8 (72 amino acids) (from UniProt P10145 28-99) (ligand)
